This data set concerns the molecule itself. The data set can be described thus: static light scattering; self-association.

Data on one protein can be found in patent US20130280271A1 (INSTITUTE FOR CANCER RESEARCH, published 2013).

Method: Light scattering analysis. Measurements were made with a Protein Solutions DynaPro Temperature Controlled Microsampler. Samples were adjusted to the desired concentration and particulates removed by filtration through a 0.2μ microcon device, and subsequent clearing by brief centrifugation at 14,000×g and 4° C. The protein concentration was then determined directly using absorbance at 280 nm and a calculated molar extinction coefficient, taking the average of 3 readings. All samples were analyzed under conditions of 10° C. in a buffer of 25 mM BisTris pH 6.1, 500 mM NaCl, 1 mM DTT, 0.1 mM EDTA, 5% glycerol. The molecular mass (MW I) was calculated from the static light scattering measurements (at least 300 acquisitions per protein sample) using the DynaPro software.

B1: ASV IN(1-207) (enzyme)
chain: PLREAKDLHTALHIGPRALSKACNISMQQAREVVQTCPHCNSAPALEAGVNPRGLGPLQIWQTDFTLEPRMAPRSWLAVTVDTASSAIVVTQHGRVTSVAAQHHWATAIAVLGRPKAIKTDNGSCFTSKSTREWLARWGIAHTTGIPGNSQGQAMVERANRLLKDKIRVLAEGDGFMKRIPTSKQGELLAKAMYALNHFERGENTKT
notes: also called IN fragment that lacks the CTD
As for B1, the binding result is “no binding (tested: 1.5 mg/ml)”.
